Our source for the Kd values is PMC8427768.

The target in this data set is T1, Elk1 ETS domain (human, UniProt P19419 1-93).
T1 sequence: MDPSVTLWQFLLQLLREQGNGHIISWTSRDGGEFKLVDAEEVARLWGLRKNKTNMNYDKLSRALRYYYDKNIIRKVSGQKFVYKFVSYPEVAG
In words: SPR.

B1: SC1 (dsDNA)
DNA 1: CGGCCAAGCCGGAAGTGAGTGCC
DNA 2: GGCACTCACTTCCGGCTTGGCCG
B1 showed a Kd of 60 ± 10 pM.

B2: E74 (dsDNA)
DNA 1: CTGAATAACCGGAAGTAACTCATC
DNA 2: GATGAGTTACTTCCGGTTATTCAG
Molecule B2 had a Kd of 20 ± 10 pM.
